The text below walks through data of US20200317806A1 (Hoffmann-La Roche, published 2020).

The assay addresses T1, murine EpCAM recombinant ectodomain (ECD), C-terminally His-Avi tagged (mouse).
T1 construct: also called mu EpCAM; EpCAM ECD
T1 chain: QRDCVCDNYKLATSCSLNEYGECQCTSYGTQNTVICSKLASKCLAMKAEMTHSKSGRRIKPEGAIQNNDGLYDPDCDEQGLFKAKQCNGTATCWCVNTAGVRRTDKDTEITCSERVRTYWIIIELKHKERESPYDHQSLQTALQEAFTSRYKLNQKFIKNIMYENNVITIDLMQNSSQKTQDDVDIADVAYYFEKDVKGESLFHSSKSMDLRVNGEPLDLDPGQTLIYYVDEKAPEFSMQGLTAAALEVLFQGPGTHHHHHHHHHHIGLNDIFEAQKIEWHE
In words: SPR (Biacore), antibody captured by anti-mouse IgG, EpCAM ECD as analyte, 37 C. From the text: This system is well established for the study of molecule interactions. It allows a continuous real-time monitoring of ligand/analyte bindings and thus the determination of association rate constants (ka), dissociation rate constants (kd), and equilibrium constants (KD) in various assay settings. SPR-technology is based on the measurement of the refractive index close to the surface of a gold coated biosensor chip. Changes in the refractive index indicate mass changes on the surface caused by the interaction of immobilized ligand with analyte injected in solution. If molecules bind to immobilized ligand on the surface the mass increases, in case of dissociation the mass decreases. For capturing, a goat anti-mouse IgG antibody was immobilized on the surface of a CM5 biosensorchip using amine-coupling chemistry according to the manufacturer's instructions. Flow cells were activated with a 1:1 mixture of 0.1 M N-hydroxysuccinimide and 0.4 M 1-ethyl-3-(3-dimethylaminopropyl)-carbodiimide hydrochloride at a flow rate of 5 μl/min at 25° C. Anti-mouse IgG antibody was injected in 10 mM sodium acetate, pH 4.5 at 10 μg/mL. A reference control flow cell was treated in the same way but with vehicle buffers only instead of the capturing antibody. Surfaces were blocked with an injection of 1 M ethanolamine/HCl pH 8.5. […] All interactions were performed at 37° C., using PBS-T as running buffer. The analytes were injected in a series of threefold increasing concentrations (EGFR ECD 4.12-1000 nM and EpCAM ECD 0.91-2000 nM in PBS-T+0.1% BSA) with a flow rate of 50 μl/min, 180 sec association, 1200 sec dissociation. The capture antibody was regenerated after each cycle with 10 mM glycine, pH 2.0 at a flow rate of 30 μl/min for 60 sec. Signals were detected at a rate of one signal per second.
(SPR reads the build-up and loss of mass on a sensor chip optically.)

B1: G8.8 (mouse EpCAM-specific antibody) (antibody, mouse IgG2a, kappa, V domains shown)
VH: EVQLAESGGGLVQPGRSMKLSCAASGFTFSNFPMAWVRQAPTKGLEWVATISTSGGSTYYRDSVKGRFTISRDNAKSTLYLQMNSLRSEDTATYYCTRTLYILRVFYFDYWGQGVMVTVSS
VL: DIQMTQSPASLSASLGETVSIECLASEGISNDLAWYQQKSGKSPQLLIYATSRLQDGVPSRFSGSGSGTRYSLKISGMQPEDEADYFCQQSYKYPWTFGGGTKLELKR
notes: Full heavy and light chains; also called EpCAM G8.8; anti-EpCAM mono-specific antibody
For orientation: Kd means the equilibrium constant for the complex coming apart. What is called koff is a measure of how fast the partners let go of each other. Broadly, the kon is the second-order rate constant of association. Take B1: the dissociation constant Kd was 61 nM, the off-rate constant (koff) was 0.013 s⁻¹ and the kon came to 220000 M⁻¹ s⁻¹.
